Measurements reported in patent US20070141048A1 (SYMPHOGEN A S, published 2007).
Substitutions are numbered along the chain they refer to.

T1: Ovalbumin (UniProt P01012 2-386)
T1 sequence: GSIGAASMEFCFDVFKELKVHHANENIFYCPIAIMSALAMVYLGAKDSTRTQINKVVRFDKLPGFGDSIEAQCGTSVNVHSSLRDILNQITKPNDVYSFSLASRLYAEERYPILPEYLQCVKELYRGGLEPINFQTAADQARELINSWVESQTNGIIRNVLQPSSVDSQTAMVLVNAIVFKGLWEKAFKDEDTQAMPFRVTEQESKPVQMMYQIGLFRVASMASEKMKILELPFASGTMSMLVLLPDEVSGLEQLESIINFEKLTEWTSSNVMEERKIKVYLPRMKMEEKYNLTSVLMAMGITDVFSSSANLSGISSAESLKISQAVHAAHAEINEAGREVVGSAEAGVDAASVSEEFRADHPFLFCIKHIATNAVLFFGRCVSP

B1: g060a10 (Fab, V domains shown)
VH: QITLKESGPTLVKPTQTLTLTCTLSGFSLYTTGVGVGWIRQPPGKALEWLARIYWDDDERYNPSLKSRLTITKDASKNQVVLKMTNMDPVDTATYYCARTMGVVLPFDYWGQGTLVTVS
VL: EIVLTQSPSTLSASVGDRVTITCRASQSIGSWLAWYQQKPGKAPKLLIYKASTLQSETPSRFRGSGSGTEFTLTISSLQPDDFATYYCQQFNSFSPWTFGQGTKVEFK
B2: g060d03 (Fab, V domains shown)
VH: QMQLVQSGAEVKKPGTSVRVSCKTSGGYVFSWVRQAPGQGPEWMGGIITNFGTTNYAQKFQGRVTITADKSTNTVYMDLSNLTSEDTAVYYCARAPRGTSTIAARFNRYFFDSWGQGTLVTVS
VL: DIQMTQSPGTLSLSPGERATLSCRASQSVNSDNLAWYQQKPGQAPRLLMSGATSRATDVPDRFSGSGSGTDFTLTISRLEPEDFAVYYCHQYGSSDNTFGQGTKLEIK
B3: g060b07 (Fab, V domains shown)
VH: B2 VH with Q1E, M2V, Q6E, N50S, N55S, S71A, N81D, V89I, R94K
VL: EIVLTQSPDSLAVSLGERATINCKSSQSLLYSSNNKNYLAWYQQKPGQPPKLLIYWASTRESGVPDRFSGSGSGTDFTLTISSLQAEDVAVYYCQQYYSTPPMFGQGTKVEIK
B4: g060b05 (Fab, V domains shown)
VH: B2 VH with M2V, P14L, S25P, Q58R, V64I, I66V, T83A
VL: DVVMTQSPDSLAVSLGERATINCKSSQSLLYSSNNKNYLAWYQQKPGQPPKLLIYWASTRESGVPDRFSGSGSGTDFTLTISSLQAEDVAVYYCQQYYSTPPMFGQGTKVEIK
B5: g060f02 (Fab, V domains shown)
VH: KVQLVQSGAEVKKPGTSVRVSCKTSGGYVFSWVRQAPGHGPEWMGGIITNFGTATYAQKFQGRVSITADTSTNTFYMDLNNLKSDDTAVYYCASAPRDTSTIAARFNRYFFDFWGPGTLVTVS
VL: B2 VL with I2V, Q3V, D32N, M49V, S54N, V59I, D96E, K108R
B6: g060f04 (Fab, V domains shown)
VH: B2 VH with Q1K, M2V, S25P, Q58R, V64I, I66V, T83A
VL: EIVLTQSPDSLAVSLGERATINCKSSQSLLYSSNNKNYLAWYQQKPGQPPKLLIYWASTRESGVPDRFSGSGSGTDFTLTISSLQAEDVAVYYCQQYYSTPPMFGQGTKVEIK
B7: g060f08 (Fab, V domains shown)
VH: B2 VH with Q1K, M2V
VL: B2 VL with I2V, Q3V, V59I
B8: g060d07 (Fab, V domains shown)
VH: B2 VH with Q1E, M2V, S25P, Q58R, V64I, I66V, T83A
VL: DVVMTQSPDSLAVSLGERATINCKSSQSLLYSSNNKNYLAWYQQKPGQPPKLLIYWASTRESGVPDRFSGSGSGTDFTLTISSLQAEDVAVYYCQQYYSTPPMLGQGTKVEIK
B9: g060f03 (Fab, V domains shown)
VH: QVQLVQSGGGLVKPGGSLRLSCAASGFTFSNAWMSWVRQAPGKGLEWVGHVKSMTDGGTTDYAAPVKGRFTISRDDSENTLYLQMNSLKTDDTAVYYCTTHDYWGQGTLVTVS
VL: EIVMTQSPPFLSASVGDRVTITCRASQGLSTYLAWYQVKPGKAPKLLIYAASTLQSGVPSRFSGSGSGTEFTLTINSLQPEDFATYYCQQLDTYPLTLGGGTKVEIK
B10: g060b09 (Fab, V domains shown)
VH: QVQLQESGPTLVKPTQTLTLTCSFSGFSLGTTGVNVGWIRQPPGKALEWLALISWDGGKHYSPSLNSRITLTKDASREQVVVPTMTNMDPADTGRYYCARIVGTHGFDYWGQGTLVTVS
VL: EIVLTQSPSFLSASVGDRVTITCRASQGIGNFLAWYQQKPGKAPKLLISGASTLQSWVPSRFSGRGSGTEFTLTISSLQPEDFATYYCQQLNRYPPYTFGQGTKLEIK
B11: g060f10 (Fab, V domains shown)
VH: B10 VH with Q3T, Q5K, S23T, D56G, P83L, T86A, A91V
VL: B10 VL with L4M
B12: g060f01 (Fab, V domains shown)
VH: QVQLQQSGGGVVQPGRSLRLSCAASGFAFRDYAMHWVRQAPGKGLEWMGVISFNGDQIFYADSMKGRFTISRENSKNTLHLRMNSLRPEDTAVYYCARARLLFCSGGRCDMDSWGQGTLVTVS
VL: EIVMTQSPSFLSASVGDRVTITCRASQDIITYLAWYQQKPGKAPEVLIFGASTLQSGVPSRFSGSGSGTEFTLTISSLQPEDFATYYCQQIIRYPRTFGQGTRVEIK
B13: g060c03 (Fab, V domains shown)
VH: KVQLVESGGGLVKPGGSLRLSCAASGSSFSNNNMNWVRQTPGKGLEWVASISFGSHYISYADSVKGRFTISRDNARNAVYLQMNSLRVEDTAVYYCTRCRGGTRTYYYMDVWGKGTLVTVS
VL: EIVMTQSPGTLALSPGDRATLSCGASQSVFGDFLAWYQHKPGQAPRLLIYGASTRATGIPDRFSGSGAGTDFTLTISRLEPEDFAVYFCQQYGDSVFTFGQGTKLEIK
B14: g060f06 (Fab, V domains shown)
VH: B13 VH with K1Q, V5Q, E6Q, S27F
VL: B13 VL with L47P
B15: g060b12 (Fab, V domains shown)
VH: B13 VH with K1Q, E6Q, S27F
VL: B13 VL with M4L, E106G
B16: g060d08 (Fab, V domains shown)
VH: B13 VH with S27F, L117M
VL: B13 VL with E1D, I2V, G51V, K108R
B17: g060c04 (Fab, V domains shown)
VH: QMQLVQSGAEVKKPGSSVKVSCQSSGGPPKSYTLSWVRQAPGQGPEWMGGIILIFGPPNYAQKFQDRLTITADKSTNTVYMELSSLRSDDTAMYYCVTAPDDTGTILARHNRYYFDSWGQGTLVTVS
VL: EIVLTQSPGTLSLSPGQRATLSCRASQSVNRDYLAWYQQKPGQAPRLLIYGASSRATGIPDRFSGSGSGTDFTLTISRLERDDFAVYFCHQYGSSPNTFGQGTKLEIK
B18: g060f11 (Fab, V domains shown)
VH: EVQLVQSGGGVVRPGGSLRLSCAGSGFTFDEYAMSWVRQAPGKGLEWVAFINWNGDSTYYADSVKGRFTVSRTNAKNSLYLQMNSLRAEDTAFYYCARDPRTKLGMSYFDYWGQGTLVTVS
VL: EIVMTQSPSSLSASVGDRVTITCRASQTISNHLNWYQQKPGRAPKLLIYVGSSLQSGVPSRFSGSGSGTDFTLTISGLQPEDFATYYCQQSYSPSYTFGQGTKVEIK
B19: g060g12 (Fab, V domains shown)
VH: B18 VH with E46K, T73S, Y95C
VL: B18 VL with E1D, V3Q, Q55R
B20: g060a11 (Fab, V domains shown)
VH: KVQLVESGGGLVKPGGSLRLSCVVSGFPLNRYTMNWVRQAPGKGLEWLSSISSTSSYIYYADSVKGRFTISRDNAKNSLFLQMNSLRADDTALYFCASGNTHDYWGQGTLVTVS
VL: DVVMTQSPSSLSASVGDRVTITCRASQSININLNWFQQKPGKAPNLLIYSASTLQTGVPSRFSGSGSGTEFTLTISSLQPEDFATYYCQQIYSHVRTFGQGTKVEIK
B21: g060c12 (Fab, V domains shown)
VH: B20 VH with E6Q, T33I, A40T, V64A, D89E, A92G, F95Y
VL: B20 VL with D1E, V2I, M4L, I21T, A25T, N30F, N45K, H94Q
B22: g060e05 (Fab, V domains shown)
VH: QVQLVESGAEVKKPGSSVKVSCKSSGGYVFSWVRQAPGQGLEWMGGIISNFRTAEYARKFQGRVTMTADTSTNTIYMELTSLTSEDTAVYFCVSAPRDTSTIAARFNRYFFDTWGQGTLVTVS
VL: EIVLTQSPGTLSLSPGERATLSCRASRSVNSNNLAWYQQKPDQAPRLLMYGASSRATGIPDRFTGSGSGTDFTLTISRLEPEDFAVYYCHQYGASDNTFGQGTKLEIK
B23: g060g09 (Fab, V domains shown)
VH: B22 VH with Q1K, E6Q, R52H, R58Q
VL: B22 VL with N30Y
B24: g060a02 (Fab, V domains shown)
VH: QVQLQQSGGGLVKPGGSLRLSCAASGFTFSSYSMNWVRQAPGKGLEWVSSISSSSSYIYYADSVKGRFTISRDNAKNSLYLQMNSLRAEDTAVYYCARRPGWAATRAAGAFDIWGQGTMVTVS
VL: EIVLTQSPSSLSASVGDRVTITCRASQGISNYLAWYQQKPGKVPKLLIYAASTLQSGVPSRFSGSGSGTDFTLTISSLQPEDVATYYCQKYNSAPYTFGQGTKLEIK
B25: g060g07 (Fab, V domains shown)
VH: QVQLQQSGPGLVKPSETLPLTCTVSGGSFSTYYWSWIRQSPEKGLEWIGYIQNSVNTNYNPSLKSRVIISVDTSNNQFSLKLRSVTAADTAVYYCARVSGWGPRGGIYFDYWGQGTLVTVS
VL: DIQMTQSPSSLSASVSDRVTITCRASQSINKFLNWYQQKPGKAPQLLIYAATNLQSGVPSRFSGSGSGTDFTLTISSLQTEDFATYYCQQSYDMPRTFGQGTKVEIK

Target: T1, Ovalbumin
Assay: ELISA, periplasmic extract on coated Ovalbumin

Binder	binding result
B1	no binding (tested: 10 µg/ml Ovalbumin coat)
B2	no binding (tested: 10 µg/ml Ovalbumin coat)
B3	no binding (tested: 10 µg/ml Ovalbumin coat)
B4	no binding (tested: 10 µg/ml Ovalbumin coat)
B5	no binding (tested: 10 µg/ml Ovalbumin coat)
B6	no binding (tested: 10 µg/ml Ovalbumin coat)
B7	no binding (tested: 10 µg/ml Ovalbumin coat)
B8	no binding (tested: 10 µg/ml Ovalbumin coat)
B9	no binding (tested: 10 µg/ml Ovalbumin coat)
B10	no binding (tested: 10 µg/ml Ovalbumin coat)
B11	no binding (tested: 10 µg/ml Ovalbumin coat)
B12	no binding (tested: 10 µg/ml Ovalbumin coat)
B13	no binding (tested: 10 µg/ml Ovalbumin coat)
B14	no binding (tested: 10 µg/ml Ovalbumin coat)
B15	no binding (tested: 10 µg/ml Ovalbumin coat)
B16	no binding (tested: 10 µg/ml Ovalbumin coat)
B17	no binding (tested: 10 µg/ml Ovalbumin coat)
B18	no binding (tested: 10 µg/ml Ovalbumin coat)
B19	no binding (tested: 10 µg/ml Ovalbumin coat)
B20	no binding (tested: 10 µg/ml Ovalbumin coat)
B21	no binding (tested: 10 µg/ml Ovalbumin coat)
B22	no binding (tested: 10 µg/ml Ovalbumin coat)
B23	no binding (tested: 10 µg/ml Ovalbumin coat)
B24	no binding (tested: 10 µg/ml Ovalbumin coat)
B25	no binding (tested: 10 µg/ml Ovalbumin coat)
